According to article PMC11192315 (PLOS Pathogens, 2024):
Substitutions are numbered along the chain they refer to. Names may count otherwise.

B1: JM-1A N59F mutant (antibody, V domains shown)
VH: QVQLQQSGPGLVKPSGTLSLTCAVSGASISSGDWWSWVRQSPGRGLEWIGGIFHSGTTFYSPSLKSRVTMSVDQPKNQFSLHLTSVTAADTAVYYCARMRGIFDYWGQGTLVTVSS
VL: DIQLTQSPSSLSVSVGDRVTITCRASQAISNSLAWYQQKPGKAPKLLLYAASTLESGVPSRFSGSGSGTDFTLTISSLQPEDFATYYCQHYYSTPFFGGGTKVEIK
B2: JM-1A-G32F (antibody, V domains shown)
VH: B1 VH with G32F, F59N
VL: B1 VL

Tests used:
[1] = target: RBD of SARS-CoV-2 Omicron BA.1 (SARS-CoV-2 Omicron BA.1, E484 to A484 | Q493R | Q498R | N501Y); experiment: cell-based or functional assay
[2] = target: RBD of SARS-CoV-2 Omicron BA.2 (SARS-CoV-2 Omicron BA.2, D405N | R408S | E484 to A484 | Q493R); experiment: cell-based or functional assay

Row | Binder | IC50, neutralisation of pseudotyped lentivirus with Omicron BA.1 spike [1] | IC50, neutralisation of pseudotyped lentivirus with Omicron BA.2 spike [2]
1 | B1 | 0.018 µg/mL | 0.011 µg/mL
2 | B2 | 0.019 µg/mL | 0.03 µg/mL
